According to patent US20250032605A1 (GENERAL HOSPITAL, published 2025):

Assays:
[1] = target: T1, SARS-2 RBM^hg RBD construct (SARS-2 RBD with engineered glycans at 448, 475, 494 and 501) (SARS-CoV-2 (engineered), UniProt P0DTC2 319-529); assay: BLI with recombinant Fabs, drawn table of KD (µM)
[2] = target: T1, SARS-2 RBM^hg RBD construct (SARS-2 RBD …); assay: BLI with recombinant Fabs, drawn table of KD (µM), column ΔRBM

| Binder | Kd [1] [nM] | Kd [2] [nM] |
| --- | --- | --- |
| Ab19 Fab (Fab, V domains shown) VH: QVQLQQSGAELARPGASVKLSCKASGYPFTSYGINWVKQRTGQGLEWIGEIYPRIGNTYYNEKFKGKATLTADKSSSTAYMEFRSLTSEDSAVYFCARSWNSNYGEYYFDYWGQGTTLTVS VL: DIVMTQSHKFMSTSIGDRVSITCKASHDVSTAVAWYQQKPGQSPKLLIYWASTRHTGVPDRFTGSGSGTDYTLTIRSVQAEDLALYYCQQHYSTPYTFGGGTKLEIK | > 100000 | > 100000 |
| Ab15 Fab (Fab, V domains shown) VH: EVQLQQSGPELVKPGASVKISCKASGYSFTGYYMNWVKQSPEKSLEWIGEINPNFGGTTYNQKFKAKATLTVDKSSSTAYMQLKSLTSEDSAVYYCARYYGNLYAMDYWGQGTSVTVS VL: DILMTQSPSSMSVSLGDTVSITCHASQGISSNIGWLQQKPGKSFKGLIYHGTNLEDGVPSRFSGSGSGAAYSLTISSLESEDFADYYCVQYTHFPYTFGGGTKLEIK | 1300 | 1300 |
| Ab17 Fab (Fab, V domains shown) VH: EVQLQQSGPELVKPGASVKISCKASGYSFTDYYMNWVKQSPEKSLEWIGEINPNTGGTTYNQKFKAKATLTVDKSSSTAYMQLKSLTSEDSAVYYCARYYGNLYAMDYWGQGTSVTVSS VL: DILMTQSPSSMSVSLGDTVSITCHASQGISSNIGWLQQKPGKSFKGLIYHGTNLEDGVPSRFSGSGSGADYSLTISSLESEDFADYYCVQYVQFPYTLGGGTKLEIK | 100 | – |
| Ab16 Fab (Fab, V domains shown) VH: EVQLQQSGPELVKPGASVKISCKASGYSFNNYYMNWVKQSPEKSLEWIGEINPNSGYTSYNQKFRAKATLTVDKSSTTAYMQLKSLTSEDSAVYYCARYFGNLFAMDFWGQGTSVTVS VL: DILMTQSPSSMSVSLGDTVSITCHASQGIGSNIGWLQQKPGKSFKGLIYLGTNLEDGVPSRFSGSGSGADYSLTISSLESEDFADYYCVQYVQFPYTFGGGTKLEIK | 160 | – |
| Ab20 Fab (Fab, V domains shown) VH: EVQLQQSGPELVKPGASVKISCKASGFSFTGYSMNWMKQSPEKSLEWIGEINPTTGGTTYNQKFKAKATLTVDKSSSTAYIQLKSLTSEDSAVYYCARGRADYWGQGTTLTVSS VL: DIVLTQSPASLAVSLGQRATISCRASESVEYYGTGLVQWFQQKPGQPPKLLIYAASNVESGVPARFSGSGSGTDFSLNIHSVEEDDIAMYFCHQSRKLPWTFGGGTKLEIK | > 100000 | > 100000 |
